Our source for the 效价 (ELISA titer, highest positive dilution) (fold dilution) values is CN113150137A.

Numbering of substitutions follows the chain as printed.

The target in this assay is 重组NDM-1蛋白 (新德里金属β-内酰胺酶, 肺炎克雷伯菌) (肺炎克雷伯菌 (Klebsiella pneumoniae)) (UniProt C7C422). In words: indirect ELISA, NDM-1 coated at 100 ng/well, purified antibody diluted 1:10000 to 1:2560000, positive if the ratio to the negative control is >2.1. A general note: An ELISA detects its analyte on a solid surface through an enzyme-linked reagent.
UniProt C7C422, sequence (C7C422 29-270 limits assumed): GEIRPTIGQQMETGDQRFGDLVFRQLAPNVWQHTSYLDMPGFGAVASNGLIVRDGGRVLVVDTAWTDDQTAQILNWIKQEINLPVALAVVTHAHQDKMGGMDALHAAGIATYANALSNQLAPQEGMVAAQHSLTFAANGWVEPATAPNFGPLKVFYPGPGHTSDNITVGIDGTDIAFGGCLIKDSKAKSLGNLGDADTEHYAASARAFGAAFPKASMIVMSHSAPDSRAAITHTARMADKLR

B1: 单克隆抗体7C10 (antibody, V domains shown)
VH: QVQLQQPGAELVRPGASVRLSCKASGYTFTNYWMNWVKQRPGQGLEWIGSINPSDGYTKYNQKFKDKATLTVDKSSSTAYLQLSSPTSEDSAVYYCTRKKVNYDYAMDYWGQGTSVTVSS
VL: DIVMSQSPSSLAVSVGEKVTMSCKSSQSLLYSSNQKNYLAWYQQKPGQSPKLLIYWASTRESGVPDRFTGSGSGTDFTLTISSVKAEDLAFYYCHQYYSYPYTFGGGTKLERK
Regarding B1, the 效价 (ELISA titer, highest positive dilution) (fold dilution) is 600000.

B2: 单克隆抗体5B9 (antibody, V domains shown)
VH: EVQLVESGGGLVKPGGSLKLSCAASGFTFSSYAMSWVRQSPEKRLEWVADISSGGSYTYYPDTVTGRFTISRDNAKNTLYLEMSSLGSEDTAMYYCAREYGGGFDYWGQGTTLTVSS
VL: DIQMTQSPASLSASVGETVTITCRASGNIHNYLAWYQQKQGKSPQLLVYNAKTLADGVPSRFSGSGSGTQYSLKINSLQPEDFGSYYCQHFWSIPRTFGGGTKLEIK
Consider B2, for which the 效价 (ELISA titer, highest positive dilution) (fold dilution) amounted to 1e+06.

B3: 单克隆抗体5G6 (antibody, V domains shown)
VH: B2 VH with S31N, S84T, G87R
VL: B2 VL with S85N
On to B3, for which the 效价 (ELISA titer, highest positive dilution) (fold dilution) was 1e+06.
